The values below come from article PMC3461317 (Biochemistry, 2010).

The test system of data set [1] is CC(C)(COP(=O)(O)OP(=O)(O)OC[C@H]1O[C@@H](n2cnc3c(N)ncnc32)[C@H](O)[C@@H]1OP(=O)(O)O)[C@@H](O)C(=O)NCCC(=O)NCCSC(=O)CF. Briefly: purified protein. Type of data set: biochemical, Streptantibioticus cattleyicolor. The note with it: 100 mM Tris-HCl pH 7.6, 25 °C, 0.5 mM DTNB.
For data set [2], the system named is CC(=O)SCCNC(=O)CCNC(=O)[C@H](O)C(C)(C)COP(=O)(O)OP(=O)(O)OC[C@H]1O[C@@H](n2cnc3c(N)ncnc32)[C@H](O)[C@@H]1OP(=O)(O)O. As to the kind of experiment: purified protein. Type of data set: biochemical, Streptantibioticus cattleyicolor. The note with it: 100 mM Tris-HCl pH 7.6, 25 °C, 0.5 mM DTNB.
The data set “crystal structure” concerns the molecule itself. Briefly: crystal structure.
The data set “SEC” concerns the molecule itself. As to the kind of experiment: SEC. (SEC sorts molecules by how far they enter the pores of the column.)

Consider “FlK (Streptantibioticus cattleyicolor; T42C)”, for which, in data set [1], the Km (in general, the substrate concentration at which the rate is half of its maximum) is listed as “(3.6 ± 1) × 10^2 μM”; the kcat (commonly the number of substrate molecules converted per active site and unit of time at saturation) amounted to 11 ± 2 s⁻¹; the catalytic efficiency (kcat/Km) (in general, the second-order rate constant that governs catalysis at low substrate concentration) is 30000 ± 10000 M⁻¹ s⁻¹.

For the molecule “FlK (Streptantibioticus cattleyicolor; F33A)”, in data set [1], the Km entry was “(1.5 ± 0.4) × 10^3 μM”, the kcat was 27 ± 4 s⁻¹ and the kcat/Km was 18000 ± 5000 M⁻¹ s⁻¹.

As to “FlK (Streptantibioticus cattleyicolor; T42A)”, in data set [1], the Km result is listed as “(1.1 ± 0.4) × 10^2 μM”, the kcat was found to be 0.45 ± 0.09 s⁻¹ and the kcat/Km was found to be 4000 ± 2000 M⁻¹ s⁻¹.

With “FlK (Streptantibioticus cattleyicolor; L26A)”, in data set [1], the Km entry is listed as “(1.2 ± 0.2) × 10^2 μM”, the turnover number (kcat) was determined as 6.7 ± 0.1 s⁻¹ and the kcat/Km worked out at 57000 ± 8000 M⁻¹ s⁻¹.

Take “FlK (Streptantibioticus cattleyicolor; F36A)”: in data set [1], the Michaelis-Menten constant (Km) result is on record as “(7.1 ± 0.8) × 10^2 μM”, the catalytic constant (kcat) was determined as 270 ± 20 s⁻¹ and the specificity constant (kcat/Km) came to 370000 ± 50000 M⁻¹ s⁻¹.

Consider “FlK (Streptantibioticus cattleyicolor; H76A)”, for which, in data set [1], the Km entry is on record as “(2.0 ± 0.7) × 10^1 μM”, the kcat stood at 0.003 ± 0.0003 s⁻¹ and the specificity constant (kcat/Km) stood at 150 ± 50 M⁻¹ s⁻¹.

“FlK (Streptantibioticus cattleyicolor; T42S)”: in data set [2], the Michaelis constant (Km) result is given as “(6.1 ± 0.9) × 10^1 μM”, the kcat worked out at 0.01 ± 0.001 s⁻¹ and the specificity constant (kcat/Km) came out at 160 ± 30 M⁻¹ s⁻¹. In data set [1], the Km result is given as “(6 ± 2) × 10^1 μM”, the turnover number (kcat) turned out to be 19 ± 4 s⁻¹ and the kcat/Km is 300000 ± 100000 M⁻¹ s⁻¹.

Consider “FlK (Streptantibioticus cattleyicolor; V23A)”, for which, in data set [1], the Michaelis constant (Km) result was “(3.0 ± 1.5) × 10^2 μM”, the kcat was determined as 150 ± 30 s⁻¹ and the kcat/Km stood at 500000 ± 300000 M⁻¹ s⁻¹.

Regarding FlK (Streptantibioticus cattleyicolor), in data set [2], the Michaelis constant (Km) entry is given as “(2.1 ± 0.5) × 10^3 μM”, the turnover number (kcat) came to 0.06 ± 0.01 s⁻¹ and the kcat/Km stood at 30 ± 10 M⁻¹ s⁻¹. In addition, in data set [1], the Km was 8 ± 1 µM, the catalytic constant (kcat) turned out to be 390 ± 20 s⁻¹ and the specificity constant (kcat/Km) was 5e+07 ± 1e+07 M⁻¹ s⁻¹.

B1: FlK-F36A (enzyme, Streptomyces cattleya)
chain: MKDGMRVGERFTHDFVVPPHKTVRHLYPESPEFAEAPEVFATGFMVGLMEWACVRAMAPYLEPGEGSLGTAICVTHTAATPPGLTVTVTAELRSVEGRRLSWRVSAHDGVDEIGSGTHERAVIHLEKFNAKVRQKTPAG
In the case of B1, in “crystal structure”, the binding result is listed as “binds”.

B2: FlK-E50Q (enzyme, Streptomyces cattleya)
chain: MKDGMRVGERFTHDFVVPPHKTVRHLYPESPEFAEFPEVFATGFMVGLMQWACVRAMAPYLEPGEGSLGTAICVTHTAATPPGLTVTVTAELRSVEGRRLSWRVSAHDGVDEIGSGTHERAVIHLEKFNAKVRQKTPAG
In the case of B2, the stoichiometry N (usually a count of units in the complex or per binding partner) in “SEC” was 2.
